This note sets out measurements from PMC3892207 (Journal of the American Chemical Society, 2013).

B1: CP-Ser (αβ heterodimer of S100A8(C42S) and S100A9(C3S)) (complex, human)
chain 1: MLTELEKALNSIIDVYHKYSLIKGNFHAVYRDDLKKLLETESPQYIRKKGADVWFKELDINTDGAVNFQEFLILVIKMGVAAHKKSHEESHKE
chain 2: MTSKMSQLERNIETIINTFHQYSVKLGHPDTLNQGEFKELVRKDLQNFLKKENKNEKVIEHIMEDLDTNADKQLSFEEFIMLMARLTWASHEKMHEGDEGPGHHHKPGLGEGTP
B2: CP-Ser(H105A) (αβ heterodimer) (complex, human)
chain 1: MLTELEKALNSIIDVYHKYSLIKGNFHAVYRDDLKKLLETESPQYIRKKGADVWFKELDINTDGAVNFQEFLILVIKMGVAAHKKSHEESHKE
chain 2: MTSKMSQLERNIETIINTFHQYSVKLGHPDTLNQGEFKELVRKDLQNFLKKENKNEKVIEHIMEDLDTNADKQLSFEEFIMLMARLTWASHEKMHEGDEGPGHHAKPGLGEGTP
B3: CP-Ser-mT (αβ heterodimer) (complex, human | mouse)
chain 1: MLTELEKALNSIIDVYHKYSLIKGNFHAVYRDDLKKLLETESPQYIRKKGADVWFKELDINTDGAVNFQEFLILVIKMGVAAHKKSHEESHKE
chain 2: MTSKMSQLERNIETIINTFHQYSVKLGHPDTLNQGEFKELVRKDLQNFLKKENKNEKVIEHIMEDLDTNADKQLSFEEFIMLMARLTWASHEKMHENNPRGHGHSHGKGCGK
B4: CP-Ser(H103A) (αβ heterodimer) (complex, human)
chain 1: MLTELEKALNSIIDVYHKYSLIKGNFHAVYRDDLKKLLETESPQYIRKKGADVWFKELDINTDGAVNFQEFLILVIKMGVAAHKKSHEESHKE
chain 2: MTSKMSQLERNIETIINTFHQYSVKLGHPDTLNQGEFKELVRKDLQNFLKKENKNEKVIEHIMEDLDTNADKQLSFEEFIMLMARLTWASHEKMHEGDEGPGAHHKPGLGEGTP
B5: CP-Ser(E99A) (αβ heterodimer) (complex, human)
chain 1: MLTELEKALNSIIDVYHKYSLIKGNFHAVYRDDLKKLLETESPQYIRKKGADVWFKELDINTDGAVNFQEFLILVIKMGVAAHKKSHEESHKE
chain 2: MTSKMSQLERNIETIINTFHQYSVKLGHPDTLNQGEFKELVRKDLQNFLKKENKNEKVIEHIMEDLDTNADKQLSFEEFIMLMARLTWASHEKMHEGDAGPGHHHKPGLGEGTP
B6: CP-Ser(D98A) (αβ heterodimer) (complex, human)
chain 1: MLTELEKALNSIIDVYHKYSLIKGNFHAVYRDDLKKLLETESPQYIRKKGADVWFKELDINTDGAVNFQEFLILVIKMGVAAHKKSHEESHKE
chain 2: MTSKMSQLERNIETIINTFHQYSVKLGHPDTLNQGEFKELVRKDLQNFLKKENKNEKVIEHIMEDLDTNADKQLSFEEFIMLMARLTWASHEKMHEGAEGPGHHHKPGLGEGTP
B7: CP-Ser(E96A) (αβ heterodimer) (complex, human)
chain 1: MLTELEKALNSIIDVYHKYSLIKGNFHAVYRDDLKKLLETESPQYIRKKGADVWFKELDINTDGAVNFQEFLILVIKMGVAAHKKSHEESHKE
chain 2: MTSKMSQLERNIETIINTFHQYSVKLGHPDTLNQGEFKELVRKDLQNFLKKENKNEKVIEHIMEDLDTNADKQLSFEEFIMLMARLTWASHEKMHAGDEGPGHHHKPGLGEGTP
B8: CP-Ser(H104A) (αβ heterodimer) (complex, human)
chain 1: MLTELEKALNSIIDVYHKYSLIKGNFHAVYRDDLKKLLETESPQYIRKKGADVWFKELDINTDGAVNFQEFLILVIKMGVAAHKKSHEESHKE
chain 2: MTSKMSQLERNIETIINTFHQYSVKLGHPDTLNQGEFKELVRKDLQNFLKKENKNEKVIEHIMEDLDTNADKQLSFEEFIMLMARLTWASHEKMHEGDEGPGHAHKPGLGEGTP
B9: CP-Ser-Δ101 (αβ heterodimer) (complex, human)
chain 1: MLTELEKALNSIIDVYHKYSLIKGNFHAVYRDDLKKLLETESPQYIRKKGADVWFKELDINTDGAVNFQEFLILVIKMGVAAHKKSHEESHKE
chain 2: MTSKMSQLERNIETIINTFHQYSVKLGHPDTLNQGEFKELVRKDLQNFLKKENKNEKVIEHIMEDLDTNADKQLSFEEFIMLMARLTWASHEKMHEGDEGP

The data set deals with the molecule itself. Put plainly: SEC. (In general: Size exclusion chromatography separates by hydrodynamic size, large species first.)
Turning to B1, the binding result was “binds”.

As for B2, the binding result was “binds”.

For B3, the binding result was “binds”.

On to B4, for which the binding result was “binds”.

For B5, the binding result is reported as “binds”.

B6: the binding result is recorded as “binds”.

Consider B7, for which the binding result is on record as “binds”.

For the protein B8, the binding result was “binds”.

On to B9, for which the binding result is “binds”.
